Assay results as given in US20070265201A1 (published 2007).
Ends that are not written are not given here.

Legend:
Assay in all cases: GST pull-down, 35S-labeled in vitro translated probe, autoradiography
[1] = target: T1, Spi-1 ETS domain, in vitro translated radiolabeled probe (UniProt P17947 170-253)
T1 construct: domain: ETS domain; also called PU.1 ETS domain

[2] = target: T2, C/EBPβ bZIP domain, in vitro translated radiolabeled probe (UniProt P17676 269-345, labeled with 35S methionine)
T2 construct: range 269-345; Residues 269-345 are stated for the bZIP expression vector in pcDNA3.1; also called bZIP region of NFIL6
T2 sequence (P17676 269-345 limits assumed): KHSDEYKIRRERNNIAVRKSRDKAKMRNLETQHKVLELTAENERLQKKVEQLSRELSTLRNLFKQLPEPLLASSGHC

[3] = target: T3, Cytomegalovirus (CMV) Immediate Early 2 protein (IE2), in vitro translated radiolabeled probe (human Cytomegalovirus (hCMV), UniProt P19893 1-580, labeled with 35S methionine)
T3 sequence: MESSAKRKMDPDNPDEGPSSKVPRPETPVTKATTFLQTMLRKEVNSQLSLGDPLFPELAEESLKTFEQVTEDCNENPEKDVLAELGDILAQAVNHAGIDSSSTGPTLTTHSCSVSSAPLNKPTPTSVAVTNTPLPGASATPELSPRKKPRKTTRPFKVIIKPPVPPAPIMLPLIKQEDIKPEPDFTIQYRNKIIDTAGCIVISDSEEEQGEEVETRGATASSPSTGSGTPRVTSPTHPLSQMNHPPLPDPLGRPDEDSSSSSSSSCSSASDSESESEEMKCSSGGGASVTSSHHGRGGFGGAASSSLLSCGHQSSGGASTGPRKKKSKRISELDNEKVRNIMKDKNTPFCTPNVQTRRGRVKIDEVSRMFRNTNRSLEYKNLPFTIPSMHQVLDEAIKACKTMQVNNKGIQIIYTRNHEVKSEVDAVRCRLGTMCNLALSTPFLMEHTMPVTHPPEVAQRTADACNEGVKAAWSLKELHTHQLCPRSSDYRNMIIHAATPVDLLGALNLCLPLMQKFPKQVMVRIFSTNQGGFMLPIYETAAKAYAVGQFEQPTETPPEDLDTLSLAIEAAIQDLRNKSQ

Measured: binding result

B1: GST fusion of IE2 291-364 fragment with an internal deletion of residues 315-328 (delA) (other)
chain: SSHHGRGGFGGAASSSLLSCGHQSRISELDNEKVRNIMKDKNTPFCTPNVQTRRGRVKID
modifications: cysteine pairing not given here; also: GST fusion, linker and position not given here
notes: also called IE2 291-364Δ315-328; not shown: glutathione-S-transferase (GST) fusion partner
no binding: all assays above
